Measurements taken from patent publication US20230192896A1 (BIOVERATIV THERAPEUTICS, published 2023).

Target: T1, FIXa-SM (FIXa+EGR-CMK) (human, UniProt P00740 47-191; P00740 227-461, EGR-CMK (L-Glu-Gly-Arg chloromethyl ketone) covalently bound to the active site)
T1 construct: BLI antigen bought from Haematologic Technologies (HCIXA-EGR); also called FIXa with substrate mimic
Assay: BLI; class meaning: paragraph 914

Binder	binding result
BIIB-9-414 (antibody, V domains shown, IgG) VH: QVQLVQSGAEVKKPGASVKVSCKASGYTFTSYYMHWVRQAPGQGLEWMGIINPSGGSTSYAQKFQGRVTMTRDTSTSTVYMELSSLRSEDTAVYYCARDPYSYGMYYFDYWGQGTLVTVSS VL: DIQMTQSPSSVSASVGDRVTITCRASQGISSWLAWYQQKPGKAPKLLIYAASSLQSGVPSRFSGSGSGTDFTLTISSLQPEDFATYYCQQGDVFPFTFGGGTKVEIK	binds
BIIB-9-469 (antibody, V domains shown, IgG) VH: QVQLVQSGAEVKKPGASVKVSCKASGYTFTSYYMHWVRQAPGQGLEWMGIINPSGGSTSYAQKFQGRVTMTRDTSTSTVYMELSSLRSEDTAVYYCARDLGYGRSYDFDLWGRGTLVTVSS VL: EIVMTQSPATLSVSPGERATLSCRASQSVSSNLAWYQQKPGQAPRLLIFGASTRATGIPARFSGSGSGTEFTLTISSLQSEDFAVYYCQQSNNFPFTFGGGTKVEIK	binds
BIIB-9-619 (antibody, V domains shown, IgG) VH: QVQLVQSGAEVKKPGASVKVSCKASGYTFTSYYMHWVRQAPGQGLEWMGIINPSGGSTSYAQKFQGRVTMTRDTSTSTVYMELSSLRSEDTAVYYCARDGPRVSDYYMDVWGKGTTVTVSS VL: EIVLTQSPATLSLSPGERATLSCRASQSVSSYLAWYQQKPGQAPRLLIYDASNRATGIPARFSGSGSGTDFTLTISSLEPEDFAVYYCQQRDNWPFTFGGGTKVEIK	binds
BIIB-9-605 (antibody, V domains shown, IgG) VH: not shown VL: DIQMTQSPSSVSASVGDRVTITCRASQGISSWLAWYQQKPGKAPKLLIYAASSLQSGVPSRFSGSGSGTDFTLTISSLQPEDFATYYCQQADVFPFTFGGGTKVEIK	binds
BIIB-9-415 (antibody, V domains shown, IgG) VH: QVQLVQSGAEVKKPGASVKVSCKASGYTFTSYYMHWVRQAPGQGLEWMGIINPSGGSTSYAQKFQGRVTMTRDTSTSTVYMELSSLRSEDTAVYYCARDGLSSGYYWDNWGQGTLVTVSS VL: DIQMTQSPSSVSASVGDRVTITCRASQGIDSWLAWYQQKPGKAPKLLIYAASSLQSGVPSRFSGSGSGTDFTLTISSLQPEDFATYYCQQGDAFPFTFGGGTKVEIK	binds
BIIB-9-564 (antibody, V domains shown, IgG; also called BIB-4-564) VH: QVQLQESGPGLVKPSETLSLTCAVSGYSISSGYYWAWIRQPPGKGLEWIGSIYHSGSTYYNPSLKSRVTISVDTSKNQFSLKLSSVTAADTAVYYCARDPGYSWEYFDYWGQGTLVTVSS VL: DIQMTQSPSSLSASVGDRVTITCRASQSISSYLNWYQQKPGKAPKLLIYAASSLQSGVPSRFSGSGSGTDFTLTISSLQPEDFATYYCQQSVAVPPTFGGGTKVEIK	binds
BIIB-9-480 (antibody, V domains shown, IgG) VH: QVQLQESGPGLVKPSETLSLTCAVSGYSISSGYYWGWIRQPPGKGLEWIGSSYHSGSTYYNPSLKSRVTISVDTSKNQFSLKLSSVTAADTAVYYCARDQQDYGAFDIWGQGTMVTVSS VL: not shown	binds
BIIB-9-440 (antibody, V domains shown, IgG) VH: QLQLQESGPGLVKPSETLSLTCTVSGGSISSSDYYWGWIRQPPGKGLEWIGSIYYSGSTYYNPSLKSRVTISVDTSKNQFSLKLSSVTAADTAVYYCARSPRHKVRGPNWFDPWGQGTLVTVSS VL: not shown	binds
BIIB-9-567 (antibody, V domains shown, IgG) VH: QVQLVQSGAEVKKPGASVKVSCKASGYTFTSYYMHWVRQAPGQGLEWMGIINPSGGSTSYAQKFQGRVTMTRDTSTSTVYMELSSLRSEDTAVYYCARLGRRYYAYDGMDVWGQGTTVTVSS VL: not shown	binds
BIIB-9-452 (antibody, V domains shown, IgG) VH: QVQLVQSGAEVKKPGASVKVSCKASGYTFTSYYMHWVRQAPGQGLEWMGIINPSGGSTSYAQKFQGRVTMTRDTSTSTVYMELSSLRSEDTAVYYCARDGRLSYTWDRWGQGTLVTVSS VL: EIVMTQSPATLSVSPGERATLSCRASQSVSSNLAWYQQKPGQAPRLLIYGASTRATGIPARFSGSGSGTEFTLTISSLQSEDFAVYYCQQANNFPFTFGGGTKVEIK	binds
BIIB-9-465 (antibody, V domains shown, IgG) VH: QVQLVQSGAEVKKPGASVKVSCKASGYTFTSYYMVWVRQAPGQGLEWMGIINPSGGSTSYAQKFQGRVTMTRDTSTSTVYMELSSLRSEDTAVYYCARSPTDGYYFDLWGRGTLVTVSS VL: DIQMTQSPSTLSASVGDRVTITCRASQSINSWLAWYQQKPGKAPKLLISDASSLESGVPSRFSGSGSGTEFTLTISSLQPDDFATYYCQQYEIFPFTFGGGTKVEIK	binds
BIIB-9-588 (antibody, V domains shown, IgG) VH: QVQLVQSGAEVKKPGASVKVSCKASGYTFTSYYMHWVRQAPGQGLEWMGIINPSGGSTTYAQKFQGRVTMTRDTSTSTVYMELSSLRSEDTAVYYCARDGGGSYDYWSGYWYDVWGQGTTVTVSS VL: EIVMTQSPATLSVSPGERATLSCRASQSVSSNLAWYQQKPGQAPRLLIYGASTRATGIPARFSGSGSGTEFTLTISSLQSEDFAVYYCQQAYNWPFTFGGGTKVEIK	binds
BIIB-9-611 (antibody, V domains shown, IgG) VH: QVQLVQSGAEVKKPGASVKVSCKASGYTFTSYYMHWVRQAPGQGLEWMGIINPSGGSTSYAQKFQGRVTMTRDTSTSTVYMELSSLRSEDTAVYYCAREVISRVSYFDLWGRGTLVTVSS VL: EIVMTQSPATLSVSPGERATLSCRASQSVSSNLAWYQQKPGQAPRLLIYGASTRATGIPARFSGSGSGTEFTLTISSLQSEDFAVYYCQQDNIHPYTFGGGTKVEIK	binds
BIIB-9-477 (antibody, V domains shown, IgG) VH: EVQLLESGGGLVQPGGSLRLSCAASGFTFSNYAMSWVRQAPGKGLEWVSAISGSGGSTYYADSVKGRFTISRDNSKNTLYLQMNSLRAEDTAVYYCARGGVYSSSWMRFWGQGTLVTVSS VL: EIVMTQSPATLSVSPGERATLSCRASQSVSSSLAWYQQKPGQAPRLLIFGASTRATGIPARFSGSGSGTEFTLTISSLQSEDFAVYYCQQDVNWPITFGGGTKVEIK	binds
BIIB-9-461 (antibody, V domains shown, IgG) VH: QVQLVQSGAEVKKPGASVKVSCKASGYTFTSYYMHWVRQAPGQGLEWMGIINPSGGSTSYAQKFQGRVTMTRDTSTSTVYMELSSLRSEDTAVYYCARGPTDSSGYLDMDVWGKGTTVTVSS VL: EIVMTQSPATLSVSPGERATLSCRASQSVSSSLAWYQQKPGQAPRLLIYGASTRATGIPARFSGSGSGTEFTLTISSLQSEDFAVYYCQQHHHWPPTFGGGTKVEIK	binds
BIIB-9-460 (antibody, V domains shown, IgG) VH: QVQLVQSGAEVKKPGASVKVSCKASGYTFTSYYMHWVRQAPGQGLEWMGIINPSGGSTSYAQKFQGRVTMTRDTSTSTVYMELSSLRSEDTAVYYCARDISTDGESSLYYYMDVWGKGTTVTVSS VL: EIVMTQSPATLSVSPGERATLSCRASQSVSSNLAWYQQKPGQAPRLLIYGASTRATGIPARFSGSGSGTEFTLTISSLQSEDFAVYYCQQHDNFPFTFGGGTKVEIK	binds
BIIB-9-883 (antibody, V domains shown, IgG) VH: QVQLVQSGAEVKKPGASVKVSCKASGYTFTSYYMHWVRQAPGQGLEWMGIINPSGGSTSYAQKFQGRVTMTRDTSTSTVYMELSSLRSEDTAVYYCARDGRLSYTWDRWGQGTLVTVSS VL: DIQMTQSPSSLSASVGDRVTITCQASQDITNYLNWYQQKPGKAPKLLIYDASNLETGVPSRFSGSGSGTDFTFTISSLQPEDIATYYCQQADHFPFTFGGGTKVEIK	binds
BIIB-9-419 (antibody, V domains shown, IgG) VH: QVQLVQSGAEVKKPGASVKVSCKASGYTFTSYYMHWVRQAPGQGLEWMGIINPSGGSTSYAQKFQGRVTMTRDTSTSTVYMELSSLRSEDTAVYYCAREPTFYASYFDLWGRGTLVTVS VL: EIVMTQSPATLSLSPGERATLSCRASQSVSSYLAWYQQKPGQAPRLLIYDSSNRATGIPARFSGSGSGTDFTLTISSLEPEDFAVYYCQQVSTHPYTFGGGTKVEIK	binds
BIIB-9-479 (antibody, V domains shown, IgG) VH: QVQLQESGPGLVKPSETLSLTCTVSGGSISSYYWSWIRQPPGKGLEWIGSIYYSGSTNYNPSLKSRVTISVDTSKNQFSLKLSSVTAADTAVYYCAREHYGDYPLFDIWGQGTMVTVSS VL: DIQMTQSPSTLSASVGDRVTITCRASQSISSWLAWYQQKPGKAPKLLIYKASSLESGVPSRFSGSGSGTEFTLTISSLQPDDFATYYCQQYRILSPTFGGGTKVEIK	binds
BIIB-9-558 (antibody, V domains shown, IgG) VH: EVQLVESGGGLVKPGGSLRLSCAASGFTFSSYSMNWVRQAPGKGLEWVSSISSSSSYIYYADSVKGRFTISRDNAKNSLYLQMNSLRAEDTAVYYCARSYGYGYHDFDLWGRGTLVTVSS VL: DIQMTQSPSTLSASVGDRVTITCRASQSIGSWLAWYQQKPGKAPKLLIYKASSLESGVPSRFSGSGSGTEFTLTISSLQPDDFATYYCQQAGSYSFTFGGGTKVEIK	binds
BIIB-9-425 (antibody, V domains shown, IgG) VH: QVQLVQSGAEVKKPGASVKVSCKASGYTFTSYYMHWVRQAPGQGLEWMGIINPSGGSTSYAQKFQGRVTMTRDTSTSTVYMELSSLRSEDTAVYYCAREPTWDVAYDYWGQGTLVTVS VL: EIVLTQSPGTLSLSPGERATLSCRASQSVSSDYLAWYQQKPGQAPRLLIYGASSRATGIPDRFSGSGSGTDFTLTISRLEPEDFAVYYCQQYDSHPYTFGGGTKVEIK	binds
BIIB-9-626 (antibody, V domains shown, IgG) VH: QVQLVQSGAEVKKPGASVKVSCKASGYTFTSYYMHWVRQAPGQGLEWMGVINPSGGSTSYAQKFQGRVTMTRDTSTSTVYMELSSLRSEDTAVYYCARDLQYSMTYFDYWGQGTLVTVSS VL: DIQMTQSPSTLSASVGDRVTITCRASQSISSWLAWYQQKPGKAPKLLIYKASSLESGVPSRFSGSGSGTEFTLTISSLQPDDFATYYCQQDGSYPPLTFGGGTKVEIK	binds
BIIB-9-475 (antibody, V domains shown, IgG) VH: QVQLQESGPGLVKPSETLSLTCTVSGGSISSYYWSWIRQPPGKGLEWIGSIYYSGSTNYNPSLKSRVTISVDTSKNQFSLKLSSVTAADTAVYYCARDVGGYDYGVGAFDIWGQGTMVTVSS VL: DIQMTQSPSSLSASVGDRVTITCQASQDITNYLNWYQQKPGKAPKLLIYDASNLETGVPSRFSGSGSGTDFTFTISSLQPEDIATYYCQQSSNFPLTFGGGTKVEIK	binds
